Test results published in patent publication US20250376532A1 (published 2025).
One block for each binder: values may come before it.

Key:
[1] = biological target: rDR5-IgG4-Fc EMCR:AACR (98-101) Mut (90s Mut) (UniProt O14763 56-210, biotinylated for BLI (site not stated)); assay: BLI
[2] = biological target: rDR5-IgG4-Fc SGE:AAA (135-137) NS Mut; assay: BLI
[3] = biological target: rDR5-IgG4-Fc KYGQ:AAGA (45-48) Mut; assay: BLI
rDR5-IgG4-Fc = rDR5-IgG4-Fc (UniProt O14763 56-210, biotinylated for BLI (site not stated)); assay: BLI
DR5 (3RA) = assay: ELISA
DR5 (WT) = DR5 (WT) (UniProt O14763 56-210, biotinylated for BLI (site not stated)); assay: ELISA
[4] = biological target: T1, rDR5-IgG4 (recombinant wild type DR5 with IgG4 Fc) (UniProt O14763 56-210, biotinylated for BLI (site not stated)); assay: BLI
[5] = biological target: T1, rDR5-IgG4 (recombinant wild type DR5 …); assay: BLI; remark: listed apart in the source
R104W DR5 = assay: BLI
R104Y DR5 = assay: BLI
[6] = biological target: T1, rDR5-IgG4 (recombinant wild type DR5 …); assay: ELISA
[7] = biological target: T1, rDR5-IgG4 (recombinant wild type DR5 …); assay: ELISA; remark: listed apart in the source
RKCAR DR5 = assay: BLI
Chimp DR5 = assay: BLI
RKCSR DR5 = assay: BLI
Monkey DR5 = assay: BLI
KKCR = assay: ELISA

R104Y DR5, sequence (chain, as listed by the source R104Y): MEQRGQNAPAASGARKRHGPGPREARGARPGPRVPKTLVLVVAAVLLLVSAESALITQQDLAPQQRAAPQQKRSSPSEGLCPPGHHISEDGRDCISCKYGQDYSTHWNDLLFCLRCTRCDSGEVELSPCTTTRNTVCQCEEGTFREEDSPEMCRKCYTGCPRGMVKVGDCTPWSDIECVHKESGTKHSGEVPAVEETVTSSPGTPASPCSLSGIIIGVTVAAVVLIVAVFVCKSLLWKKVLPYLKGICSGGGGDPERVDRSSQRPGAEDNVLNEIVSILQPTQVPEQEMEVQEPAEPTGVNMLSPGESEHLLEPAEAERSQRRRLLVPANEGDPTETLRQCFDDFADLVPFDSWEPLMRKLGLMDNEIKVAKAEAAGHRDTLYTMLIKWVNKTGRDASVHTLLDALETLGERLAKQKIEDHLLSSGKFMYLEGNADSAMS
R104W DR5, sequence (chain, as listed by the source R104W): as the sequence (chain, as listed by the source R104Y) above, with Y157W counted along it

- koff [1]: 1.61e-05 s⁻¹
- koff [2]: 2.01e-05 s⁻¹
- koff [3]: 1e-07 s⁻¹
- Kd (rDR5-IgG4-Fc): < 1 pM
- Kd (DR5 (3RA)): 87 pM
- Kd (DR5 (WT)): 88 pM
B1: KMTR2 (antibody, V domains shown)
VH: QVQLVQSGAEMKKPGASVKVSCKTSGYTFTNYKINWVRQAPGQGLEWMGWMNPDTDSTGYPQKFQGRVTMTRNTSISTAYMELSSLRSEDTAVYYCARSYGSGSYYRDYYYGMDVWGQGTTVTVSS
VL: EIVLTQSPATLSLSPGERATLSCRASQSVSSYLAWYQQKPGQAPRLLIYDASNRATGIPARFSGSGSGTDFTLTISSLEPEDFAVYYCQQRSNWPLTFGGGTKVEIKR

- Kd [4]: 519 pM
- Kd [5]: 37.6 pM
- Kd (R104W DR5): 1820 pM
- Kd (R104Y DR5): 1930 pM
- Kd [6]: 81 pM
- Kd [7]: 32 pM
B2: lexatumumab (antibody, V domains shown)
VH: EVQLVQSGGGVERPGGSLRLSCAASGFTFDDYGMSWVRQAPGKGLEWVSGINWNGGSTGYADSVKGRVTISRDNAKNSLYLQMNSLRAEDTAVYYCAKILGAGRGWYFDLWGKGTTVTVSS
VL: SSELTQDPAVSVALGQTVRITCQGDSLRSYYASWYQQKPGQAPVLVIYGKNNRPSGIPDRFSGSSSGNTASLTITGAQAEDEADYYCNSRDSSGNHVVFGGGTKLTVL

- Kd (RKCAR DR5): 266 pM
- Kd (Chimp DR5): < 1 pM
- Kd (RKCSR DR5): 215 pM
- Kd (Monkey DR5): 14 pM
B3: Biot-Lexa (antibody, V domains shown)
VH: B2 VH
VL: B2 VL

- Kd (KKCR): 1190 pM
B4: Antibody (antibody, V domains shown)
VH: B2 VH
VL: B2 VL
